In paper PMC10568284:

Key:
[1] = target: tissue factor pathway inhibitor alpha (human) (UniProt P10646); assay: SPR
antithrombin = antithrombin (UniProt P01008); assay: SPR
UniProt P01008, sequence (P01008 33-464): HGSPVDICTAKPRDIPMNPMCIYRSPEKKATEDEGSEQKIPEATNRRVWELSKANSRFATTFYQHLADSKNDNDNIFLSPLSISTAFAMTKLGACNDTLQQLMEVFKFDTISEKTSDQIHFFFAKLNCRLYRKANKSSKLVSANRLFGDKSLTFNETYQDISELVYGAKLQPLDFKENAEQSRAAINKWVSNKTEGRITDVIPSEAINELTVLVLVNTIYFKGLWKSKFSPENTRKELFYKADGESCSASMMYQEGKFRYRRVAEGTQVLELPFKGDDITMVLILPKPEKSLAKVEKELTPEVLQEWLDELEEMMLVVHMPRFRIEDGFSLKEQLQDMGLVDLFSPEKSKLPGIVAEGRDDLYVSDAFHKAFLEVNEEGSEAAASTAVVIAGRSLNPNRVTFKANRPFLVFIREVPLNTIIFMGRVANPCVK

UniProt P10646, sequence (P10646 29-304): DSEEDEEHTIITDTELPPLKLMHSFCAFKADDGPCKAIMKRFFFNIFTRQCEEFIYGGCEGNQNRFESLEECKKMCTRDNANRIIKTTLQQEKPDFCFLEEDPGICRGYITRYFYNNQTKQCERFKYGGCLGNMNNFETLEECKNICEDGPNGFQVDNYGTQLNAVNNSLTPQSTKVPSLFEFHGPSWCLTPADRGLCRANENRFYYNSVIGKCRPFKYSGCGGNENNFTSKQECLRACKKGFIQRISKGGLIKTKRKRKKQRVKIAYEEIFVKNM

“S195A Gla-domainless factor Xa (from UniProt P00742 82-182; P00742 235-488) (domain or fragment)” was tested, and the Kd [1] was 2 nM and the Kd (antithrombin) was 416 nM.

“K96YS195A GD-FXa (from UniProt P00742 82-182; P00742 235-488) (domain or fragment)” was tested, and the Kd (antithrombin) was 460 nM.
